# T1: Spo0J R82A (Bacillus subtilis, UniProt P26497 1-282, R82A)
# T1 sequence: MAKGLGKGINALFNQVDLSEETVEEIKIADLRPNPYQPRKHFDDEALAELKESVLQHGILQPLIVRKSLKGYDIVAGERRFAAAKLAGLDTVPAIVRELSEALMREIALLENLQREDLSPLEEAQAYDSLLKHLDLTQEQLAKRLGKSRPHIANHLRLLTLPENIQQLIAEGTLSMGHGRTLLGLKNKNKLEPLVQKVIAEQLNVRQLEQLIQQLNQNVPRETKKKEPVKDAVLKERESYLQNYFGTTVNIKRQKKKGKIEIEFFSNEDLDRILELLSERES
# Target: T1, Spo0J R82A
# Test: white light interferometry (BLItz), Hill fit (n=1.9±0.5); 150 mM NaCl, 0.02% Tween-20; apparent Kd; PIFE: 20 mM Tris pH 7.5, 100 ug/ml BSA, 100 mM NaCl (150 mM for Spo0J R82A Kd), flow 100 ul/min; BLItz: 20 mM Tris pH 7.5, 150 mM NaCl, 100 ug/ml BSA, 0.02% Twe
binder,measurement,value
39-bp scrambled parS duplex (oTG044F/oTG043R) (dsDNA) DNA 1: CAGTTGAATCTGACAAATGACTAACAATGAGAGCAAAAA DNA 2: TTTTTGCTCTCATTGTTAGTCATTTGTCAGATTCAACTG,Kd,0.131 ± 0.0243 µM

# Reference: article PMC4786781
